Source: patent publication EP4740966A1
Where “and” joins values, the source holds several entries; their conditions need not be identical. Equal entries are not always repeated. Where two headings read alike, the source gives them in different places. Blank lines part the entries; values can stand above or below the substance they belong to.

Tests used:
Experiment in all cases: co-expression of chains A and B 1:1 in HEK293, Protein A, non-reduced SDS-PAGE band intensity
[1] = molecular target: Human IgG1-Fc, chain B with D356C+T366S+L368A+Y407V (human) [IgG part: P0DOX5]
[2] = molecular target: Human IgG1-Fc, chain B with D356C+T366S+L368A+Y407V (human) [IgG part: P0DOX5]; remark: listed apart in the source
[3] = molecular target: Human IgG1-Fc, chain B with D356C+T366S+L368A+Y407V+F405K (human) [IgG part: P0DOX5]
[4] = molecular target: Human IgG1-Fc, chain B with D356C+T366S+L368A+Y407V+F405K (human) [IgG part: P0DOX5]; remark: listed apart in the source
[5] = molecular target: Human IgG1-Fc, chain B with D356C+T366S+L368A+Y407V+F405K+K360E+Q347E (human) [IgG part: P0DOX5]
[6] = molecular target: Human IgG1-Fc, chain B with D356C+T366S+L368A+Y407V+F405K+Q347R (human) [IgG part: P0DOX5]
[7] = molecular target: Human IgG1-Fc, chain B with D356C+T366S+L368A+Y407V+K360E+Q347E (human) [IgG part: P0DOX5]
[8] = molecular target: Human IgG1-Fc, chain B with D356C+T366S+L368A+Y407V+Q347R (human) [IgG part: P0DOX5]
[9] = molecular target: ScFv-Fc fusion protein (anti-Her2 single chain antibody-Fc), chain A with Y349C+T366W
[10] = molecular target: ScFv-Fc fusion protein, chain A with T366W+F405K
[11] = molecular target: ScFv-Fc fusion protein, chain A with T366W+F405K+D399S
[12] = molecular target: ScFv-Fc fusion protein, chain A with T366W+F405K+Y349D+S354D
[13] = molecular target: ScFv-Fc fusion protein, chain A with T366W+K409A
[14] = molecular target: ScFv-Fc fusion protein, chain A with T366W+K409A+K392D
[15] = molecular target: ScFv-Fc fusion protein, chain A with T366W+K409A+Y349D
[16] = molecular target: ScFv-Fc fusion protein, chain A with T366W+K409A+Y349D+S354D
[17] = molecular target: ScFv-Fc fusion protein, chain A with Y349C+T366W+F405K
[18] = molecular target: ScFv-Fc fusion protein, chain A with Y349C+T366W+F405K; remark: listed apart in the source
[19] = molecular target: ScFv-Fc fusion protein, chain A with Y349C+T366W+F405K; remark: listed apart in the source
[20] = molecular target: ScFv-Fc fusion protein, chain A with Y349C+T366W+F405K+K360E+Q347E
[21] = molecular target: ScFv-Fc fusion protein, chain A with Y349C+T366W+F405K+Q347R
[22] = molecular target: ScFv-Fc fusion protein, chain A with Y349C+T366W+K409A
[23] = molecular target: ScFv-Fc fusion protein, chain A with Y349C+T366W+K409A; remark: listed apart in the source
[24] = molecular target: ScFv-Fc fusion protein, chain A with Y349C+T366W+K409A; remark: listed apart in the source
[25] = molecular target: ScFv-Fc fusion protein, chain A with Y349C+T366W+K409A+K360E+Q347E
[26] = molecular target: ScFv-Fc fusion protein, chain A with Y349C+T366W+K409A+Q347R
[27] = molecular target: ScFv-Fc fusion protein, chain A with Y349C+T366W+K409E
[28] = molecular target: VhH-Fc fusion protein (camel single domain antibody variable region-Fc), chain B with D356C+T366S+L368A+Y407V+F405K
[29] = molecular target: VhH-Fc fusion protein, chain B with D356C+T366S+L368A+Y407V
[30] = molecular target: VhH-Fc fusion protein, chain B with T366S+L368A+Y407V+D399S+F405K
[31] = molecular target: VhH-Fc fusion protein, chain B with T366S+L368A+Y407V+K409A+E357A
[32] = molecular target: VhH-Fc fusion protein, chain B with T366S+L368A+Y407V+K409A+K392D
[33] = molecular target: VhH-Fc fusion protein, chain B with T366S+L368G+Y407A+K409A

Chain of ScFv-Fc fusion protein, chain A with Y349C+T366W+K409A (chain): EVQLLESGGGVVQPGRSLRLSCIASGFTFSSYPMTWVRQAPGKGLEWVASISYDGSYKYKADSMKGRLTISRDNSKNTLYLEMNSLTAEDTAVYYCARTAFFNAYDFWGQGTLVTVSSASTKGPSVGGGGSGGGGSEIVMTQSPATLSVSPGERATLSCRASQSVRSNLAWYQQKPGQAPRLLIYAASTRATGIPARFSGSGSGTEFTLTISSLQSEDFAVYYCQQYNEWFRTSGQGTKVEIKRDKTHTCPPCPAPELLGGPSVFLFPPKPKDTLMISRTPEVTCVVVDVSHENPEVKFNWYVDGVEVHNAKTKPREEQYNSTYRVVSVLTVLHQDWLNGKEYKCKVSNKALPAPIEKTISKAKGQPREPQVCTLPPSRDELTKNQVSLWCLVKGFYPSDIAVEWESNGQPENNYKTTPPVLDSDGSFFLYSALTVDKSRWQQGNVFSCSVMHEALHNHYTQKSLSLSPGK
Chain of ScFv-Fc fusion protein, chain A with Y349C+T366W+F405K (chain): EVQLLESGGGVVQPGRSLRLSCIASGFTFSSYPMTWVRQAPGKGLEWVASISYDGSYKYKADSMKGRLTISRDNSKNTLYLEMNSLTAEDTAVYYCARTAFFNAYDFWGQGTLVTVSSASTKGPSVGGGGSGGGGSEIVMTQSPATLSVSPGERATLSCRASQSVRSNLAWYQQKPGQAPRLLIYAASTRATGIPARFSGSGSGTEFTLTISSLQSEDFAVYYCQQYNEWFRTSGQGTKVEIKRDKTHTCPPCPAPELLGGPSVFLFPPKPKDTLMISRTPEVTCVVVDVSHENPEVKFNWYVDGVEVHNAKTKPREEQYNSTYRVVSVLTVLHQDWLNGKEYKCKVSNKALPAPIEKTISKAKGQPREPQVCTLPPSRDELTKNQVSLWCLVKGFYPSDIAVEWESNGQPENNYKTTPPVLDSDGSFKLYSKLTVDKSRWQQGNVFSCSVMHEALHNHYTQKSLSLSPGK
Chain of ScFv-Fc fusion protein (anti-Her2 single chain antibody-Fc), chain A with Y349C+T366W (chain): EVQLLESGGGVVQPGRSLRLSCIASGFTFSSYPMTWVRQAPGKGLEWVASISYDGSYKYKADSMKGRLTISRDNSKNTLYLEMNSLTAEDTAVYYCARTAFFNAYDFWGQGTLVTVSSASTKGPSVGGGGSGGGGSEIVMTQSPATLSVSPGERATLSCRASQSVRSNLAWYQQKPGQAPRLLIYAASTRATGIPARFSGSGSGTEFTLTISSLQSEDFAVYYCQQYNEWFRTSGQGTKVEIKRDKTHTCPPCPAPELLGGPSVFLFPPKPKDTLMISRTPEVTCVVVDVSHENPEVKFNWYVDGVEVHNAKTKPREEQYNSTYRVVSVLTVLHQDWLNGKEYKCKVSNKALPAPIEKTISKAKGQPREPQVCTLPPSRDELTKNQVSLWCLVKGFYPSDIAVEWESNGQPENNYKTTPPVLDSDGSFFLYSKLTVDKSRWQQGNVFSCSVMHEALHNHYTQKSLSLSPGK
Chain of ScFv-Fc fusion protein, chain A with T366W+K409A+Y349D (chain): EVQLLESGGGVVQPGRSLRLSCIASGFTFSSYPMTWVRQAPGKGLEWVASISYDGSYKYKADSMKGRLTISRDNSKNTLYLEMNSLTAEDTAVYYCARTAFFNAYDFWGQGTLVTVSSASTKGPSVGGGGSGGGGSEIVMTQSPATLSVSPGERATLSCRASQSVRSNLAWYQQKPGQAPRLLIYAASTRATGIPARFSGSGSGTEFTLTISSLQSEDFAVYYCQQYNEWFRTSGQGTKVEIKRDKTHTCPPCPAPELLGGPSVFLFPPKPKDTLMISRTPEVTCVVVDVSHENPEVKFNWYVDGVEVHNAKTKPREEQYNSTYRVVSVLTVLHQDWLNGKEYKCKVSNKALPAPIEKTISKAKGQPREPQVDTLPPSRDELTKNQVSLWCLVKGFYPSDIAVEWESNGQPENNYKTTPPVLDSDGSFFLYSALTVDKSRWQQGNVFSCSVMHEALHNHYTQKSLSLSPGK
Chain of ScFv-Fc fusion protein, chain A with Y349C+T366W+F405K+Q347R (chain): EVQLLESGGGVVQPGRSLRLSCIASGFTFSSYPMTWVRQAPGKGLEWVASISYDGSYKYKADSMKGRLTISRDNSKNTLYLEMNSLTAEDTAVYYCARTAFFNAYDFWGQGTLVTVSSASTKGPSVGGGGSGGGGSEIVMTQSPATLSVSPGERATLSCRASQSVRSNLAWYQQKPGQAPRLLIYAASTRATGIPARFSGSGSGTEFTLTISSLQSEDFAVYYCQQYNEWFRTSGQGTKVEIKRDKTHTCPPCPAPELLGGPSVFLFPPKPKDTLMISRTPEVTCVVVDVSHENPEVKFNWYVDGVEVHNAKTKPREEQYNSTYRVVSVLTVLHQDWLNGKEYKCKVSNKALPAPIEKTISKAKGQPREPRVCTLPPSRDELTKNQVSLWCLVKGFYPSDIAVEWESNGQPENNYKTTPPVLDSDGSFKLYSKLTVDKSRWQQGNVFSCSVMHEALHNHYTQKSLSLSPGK
Chain of ScFv-Fc fusion protein, chain A with T366W+K409A+Y349D+S354D (chain): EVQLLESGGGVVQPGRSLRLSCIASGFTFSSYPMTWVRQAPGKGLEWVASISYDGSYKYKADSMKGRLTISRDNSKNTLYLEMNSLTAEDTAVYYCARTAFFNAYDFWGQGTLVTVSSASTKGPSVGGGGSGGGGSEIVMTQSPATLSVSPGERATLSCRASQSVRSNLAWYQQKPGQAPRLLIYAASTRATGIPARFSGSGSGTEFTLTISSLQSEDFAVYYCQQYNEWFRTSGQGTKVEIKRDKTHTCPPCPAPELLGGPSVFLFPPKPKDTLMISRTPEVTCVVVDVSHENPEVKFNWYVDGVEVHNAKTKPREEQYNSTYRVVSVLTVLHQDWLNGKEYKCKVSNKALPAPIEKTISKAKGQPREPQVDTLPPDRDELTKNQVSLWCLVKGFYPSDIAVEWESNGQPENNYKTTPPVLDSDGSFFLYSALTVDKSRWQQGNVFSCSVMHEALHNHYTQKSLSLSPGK
Chain of ScFv-Fc fusion protein, chain A with T366W+K409A (chain): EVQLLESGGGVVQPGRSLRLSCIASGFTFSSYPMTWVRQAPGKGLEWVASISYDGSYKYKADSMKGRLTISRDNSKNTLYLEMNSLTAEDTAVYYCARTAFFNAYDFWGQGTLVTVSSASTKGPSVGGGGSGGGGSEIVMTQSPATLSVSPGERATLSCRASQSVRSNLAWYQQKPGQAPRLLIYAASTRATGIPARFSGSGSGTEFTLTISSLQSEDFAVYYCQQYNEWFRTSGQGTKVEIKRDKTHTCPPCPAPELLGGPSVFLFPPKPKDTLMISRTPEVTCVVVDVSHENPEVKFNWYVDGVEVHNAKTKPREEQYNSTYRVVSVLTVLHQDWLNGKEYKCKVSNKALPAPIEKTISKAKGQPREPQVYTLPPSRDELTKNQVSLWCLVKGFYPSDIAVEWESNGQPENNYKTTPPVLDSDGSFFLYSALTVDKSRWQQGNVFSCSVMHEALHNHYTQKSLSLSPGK
Chain of ScFv-Fc fusion protein, chain A with Y349C+T366W+K409E (chain): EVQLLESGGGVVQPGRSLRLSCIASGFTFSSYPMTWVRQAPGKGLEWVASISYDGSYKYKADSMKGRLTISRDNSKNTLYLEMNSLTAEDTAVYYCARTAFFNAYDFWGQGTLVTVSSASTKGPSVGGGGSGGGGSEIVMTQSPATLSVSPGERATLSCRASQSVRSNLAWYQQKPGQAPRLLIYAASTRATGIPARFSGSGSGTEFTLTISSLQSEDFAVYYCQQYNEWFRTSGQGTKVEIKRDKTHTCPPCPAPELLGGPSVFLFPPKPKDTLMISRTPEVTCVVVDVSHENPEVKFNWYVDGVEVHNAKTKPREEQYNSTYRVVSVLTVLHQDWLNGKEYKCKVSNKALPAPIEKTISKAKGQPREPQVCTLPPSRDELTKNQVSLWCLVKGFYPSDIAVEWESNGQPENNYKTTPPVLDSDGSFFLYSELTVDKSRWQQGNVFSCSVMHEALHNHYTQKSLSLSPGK
Chain of ScFv-Fc fusion protein, chain A with Y349C+T366W+F405K+K360E+Q347E (chain): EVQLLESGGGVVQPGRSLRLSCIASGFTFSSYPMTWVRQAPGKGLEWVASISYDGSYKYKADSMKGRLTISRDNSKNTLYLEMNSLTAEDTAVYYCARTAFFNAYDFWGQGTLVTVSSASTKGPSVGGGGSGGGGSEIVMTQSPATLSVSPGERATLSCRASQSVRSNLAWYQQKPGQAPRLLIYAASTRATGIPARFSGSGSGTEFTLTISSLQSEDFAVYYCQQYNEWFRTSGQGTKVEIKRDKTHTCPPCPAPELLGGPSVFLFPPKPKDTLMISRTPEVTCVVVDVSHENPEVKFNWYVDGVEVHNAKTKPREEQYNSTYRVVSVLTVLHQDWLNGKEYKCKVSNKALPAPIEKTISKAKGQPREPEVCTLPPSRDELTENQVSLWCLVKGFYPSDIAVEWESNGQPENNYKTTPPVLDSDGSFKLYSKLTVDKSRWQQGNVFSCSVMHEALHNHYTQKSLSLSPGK
Chain of ScFv-Fc fusion protein, chain A with T366W+F405K+D399S (chain): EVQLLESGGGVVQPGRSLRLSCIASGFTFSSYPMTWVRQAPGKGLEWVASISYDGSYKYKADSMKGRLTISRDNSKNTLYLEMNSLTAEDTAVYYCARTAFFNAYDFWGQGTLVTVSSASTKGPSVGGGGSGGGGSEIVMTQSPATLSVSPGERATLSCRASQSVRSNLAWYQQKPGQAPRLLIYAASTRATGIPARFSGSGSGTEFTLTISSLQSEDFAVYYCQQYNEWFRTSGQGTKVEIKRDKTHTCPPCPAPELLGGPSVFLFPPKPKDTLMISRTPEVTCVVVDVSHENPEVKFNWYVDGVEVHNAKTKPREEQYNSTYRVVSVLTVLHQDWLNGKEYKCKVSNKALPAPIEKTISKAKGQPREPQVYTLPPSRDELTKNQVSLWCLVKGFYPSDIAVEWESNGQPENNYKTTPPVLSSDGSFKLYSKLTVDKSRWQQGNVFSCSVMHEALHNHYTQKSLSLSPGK

Substance: Human IgG1-Fc, chain B with D356C+T366S+L368A+Y407V (from UniProt P0DOX5 223-449)
Fc homodimer (%) [1]: 20%
Fc homodimer (%) [2]: 23%

Substance: Human IgG1-Fc, chain B with D356C+T366S+L368A+Y407V+F405K (from UniProt P0DOX5 223-449)
Fc homodimer (%) [3]: 18% and 13%
Fc homodimer (%) [4]: 10%

Substance: Human IgG1-Fc, chain B with D356C+T366S+L368A+Y407V+F405K+Q347R (from UniProt P0DOX5 223-449)
Fc homodimer (%) [6]: 12%

Substance: Human IgG1-Fc, chain B with D356C+T366S+L368A+Y407V+K360E+Q347E (from UniProt P0DOX5 223-449)
Fc homodimer (%) [7]: 24%

Substance: ScFv-Fc fusion protein (anti-Her2 single chain antibody-Fc), chain A with Y349C+T366W
ScFv-Fc homodimer (%) [9]: 29% and 24%

Substance: ScFv-Fc fusion protein, chain A with T366W+F405K
ScFv-Fc homodimer (%) [10]: 5%

Substance: ScFv-Fc fusion protein, chain A with T366W+F405K+D399S
ScFv-Fc homodimer (%) [11]: 6%

Substance: ScFv-Fc fusion protein, chain A with T366W+F405K+Y349D+S354D
ScFv-Fc homodimer (%) [12]: 9%

Substance: ScFv-Fc fusion protein, chain A with T366W+K409A
ScFv-Fc homodimer (%) [13]: 15%

Substance: ScFv-Fc fusion protein, chain A with T366W+K409A+Y349D+S354D
ScFv-Fc homodimer (%) [16]: 10%

Substance: ScFv-Fc fusion protein, chain A with Y349C+T366W+F405K
ScFv-Fc homodimer (%) [17]: 10%
ScFv-Fc homodimer (%) [18]: 17%
ScFv-Fc homodimer (%) [19]: 9%

Substance: ScFv-Fc fusion protein, chain A with Y349C+T366W+F405K+K360E+Q347E
ScFv-Fc homodimer (%) [20]: 14%

Substance: ScFv-Fc fusion protein, chain A with Y349C+T366W+F405K+Q347R
ScFv-Fc homodimer (%) [21]: 14%

Substance: ScFv-Fc fusion protein, chain A with Y349C+T366W+K409A+Q347R
ScFv-Fc homodimer (%) [26]: 21%

Substance: VhH-Fc fusion protein (camel single domain antibody variable region-Fc), chain B with D356C+T366S+L368A+Y407V+F405K
VhH-Fc homodimer (%) [28]: 19%

Substance: VhH-Fc fusion protein, chain B with D356C+T366S+L368A+Y407V
VhH-Fc homodimer (%) [29]: 27%

Substance: VhH-Fc fusion protein, chain B with T366S+L368A+Y407V+K409A+E357A
VhH-Fc homodimer (%) [31]: 7%

Substance: VhH-Fc fusion protein, chain B with T366S+L368A+Y407V+K409A+K392D
VhH-Fc homodimer (%) [32]: 13%

The remaining lines, values ahead:

Fc homodimer (%) [5]: 8%
Substance: Human IgG1-Fc, chain B with D356C+T366S+L368A+Y407V+F405K+K360E+Q347E (from UniProt P0DOX5 223-449)

Fc homodimer (%) [8]: 14%
Substance: Human IgG1-Fc, chain B with D356C+T366S+L368A+Y407V+Q347R (from UniProt P0DOX5 223-449)

ScFv-Fc homodimer (%) [14]: 7%
Substance: ScFv-Fc fusion protein, chain A with T366W+K409A+K392D

ScFv-Fc homodimer (%) [15]: 14%
Substance: ScFv-Fc fusion protein, chain A with T366W+K409A+Y349D

ScFv-Fc homodimer (%) [22]: 10%
ScFv-Fc homodimer (%) [23]: 21%
ScFv-Fc homodimer (%) [24]: 13%
Substance: ScFv-Fc fusion protein, chain A with Y349C+T366W+K409A

ScFv-Fc homodimer (%) [25]: 24%
Substance: ScFv-Fc fusion protein, chain A with Y349C+T366W+K409A+K360E+Q347E

ScFv-Fc homodimer (%) [27]: 25%
Substance: ScFv-Fc fusion protein, chain A with Y349C+T366W+K409E

VhH-Fc homodimer (%) [30]: 13%
Substance: VhH-Fc fusion protein, chain B with T366S+L368A+Y407V+D399S+F405K

VhH-Fc homodimer (%) [33]: 7%
Substance: VhH-Fc fusion protein, chain B with T366S+L368G+Y407A+K409A
